Source: patent US20230220080A1 (EPIMAB BIOTHERAPEUTICS, published 2023)
Each block holds one binder with its values, some of them ahead of it.

How the values were obtained:
[1] = target: T1, CD3 on the cell surface of Jurkat cells (human, UniProt P07766 23-207); experiment: FACS on Jurkat cells, 100 nM
T1 construct: whole, on cells; CD3 is a complex of several chains; also called CD3 (Jurkat)

[2] = target: T2, human EGFR, recombinant protein (human, UniProt P00533 25-645); experiment: method not stated
T2 construct: also called hEGFR

membrane EGFR on cells = membrane EGFR on cells (human, UniProt P00533 25-1210); experiment: cell-based or functional assay
[3] = target: T2, human EGFR, recombinant protein; experiment: protein based binding; method not stated
Cyno EGFR = Cyno EGFR (cynomolgus, UniProt A0A2K5WK39 25-645); experiment: protein based binding; method not stated
[4] = target: T2, human EGFR, recombinant protein; experiment: method not stated; remark: listed apart in the source
[5] = target: T3, c-Met, recombinant protein (human, UniProt P08581 25-932, limits assumed); experiment: SPR
T3 construct: also called human cMet; cMet-his
T3 sequence (P08581 25-932 limits assumed): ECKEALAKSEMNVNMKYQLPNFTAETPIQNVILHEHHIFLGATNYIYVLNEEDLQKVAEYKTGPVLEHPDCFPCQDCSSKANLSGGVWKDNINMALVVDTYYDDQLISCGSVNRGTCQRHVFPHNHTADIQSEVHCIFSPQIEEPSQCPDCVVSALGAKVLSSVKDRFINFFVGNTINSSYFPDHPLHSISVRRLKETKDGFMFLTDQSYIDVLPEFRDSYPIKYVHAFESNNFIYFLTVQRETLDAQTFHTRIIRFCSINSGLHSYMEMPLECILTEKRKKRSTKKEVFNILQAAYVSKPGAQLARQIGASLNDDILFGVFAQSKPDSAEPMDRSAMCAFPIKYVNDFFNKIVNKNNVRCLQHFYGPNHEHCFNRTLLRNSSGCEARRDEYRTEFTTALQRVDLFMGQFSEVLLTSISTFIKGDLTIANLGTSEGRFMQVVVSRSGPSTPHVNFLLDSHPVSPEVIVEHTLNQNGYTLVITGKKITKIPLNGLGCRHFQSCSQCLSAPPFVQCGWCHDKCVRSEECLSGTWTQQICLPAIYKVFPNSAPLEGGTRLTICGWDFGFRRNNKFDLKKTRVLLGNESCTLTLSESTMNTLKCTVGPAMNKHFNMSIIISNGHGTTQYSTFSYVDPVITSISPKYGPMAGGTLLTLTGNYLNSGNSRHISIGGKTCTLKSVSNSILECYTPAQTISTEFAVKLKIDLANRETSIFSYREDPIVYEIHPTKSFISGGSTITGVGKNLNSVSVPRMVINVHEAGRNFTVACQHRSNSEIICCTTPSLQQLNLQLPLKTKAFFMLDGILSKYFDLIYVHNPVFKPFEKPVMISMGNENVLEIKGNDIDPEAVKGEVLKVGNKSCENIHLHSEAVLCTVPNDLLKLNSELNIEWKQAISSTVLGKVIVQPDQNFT

[6] = target: T4, human PD-L1, recombinant protein (human, UniProt Q9NZQ7 19-239, limits assumed); experiment: SPR
T4 construct: also called rhPD-L1; PD-L1-his
T4 sequence (Q9NZQ7 19-239 limits assumed): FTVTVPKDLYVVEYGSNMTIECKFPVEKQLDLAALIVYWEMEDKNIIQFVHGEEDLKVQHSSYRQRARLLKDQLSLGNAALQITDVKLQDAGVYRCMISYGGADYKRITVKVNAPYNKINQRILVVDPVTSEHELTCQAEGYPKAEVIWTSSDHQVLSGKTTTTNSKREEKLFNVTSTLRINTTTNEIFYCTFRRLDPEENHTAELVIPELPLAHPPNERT

[7] = target: T4, human PD-L1, recombinant protein; experiment: method not stated
[8] = target: T4, human PD-L1, recombinant protein; experiment: SPR Biacore X100, antigen immobilised on CM5, Ig injected
[9] = target: T3, c-Met, recombinant protein; experiment: protein based binding; method not stated
[10] = target: T3, c-Met, recombinant protein; experiment: method not stated
Cyno cMet = Cyno cMet (cynomolgus, UniProt A0A2K5UM36 25-932); experiment: protein based binding; method not stated
Chain of Cyno cMet (A0A2K5UM36 entry or part of it limits assumed): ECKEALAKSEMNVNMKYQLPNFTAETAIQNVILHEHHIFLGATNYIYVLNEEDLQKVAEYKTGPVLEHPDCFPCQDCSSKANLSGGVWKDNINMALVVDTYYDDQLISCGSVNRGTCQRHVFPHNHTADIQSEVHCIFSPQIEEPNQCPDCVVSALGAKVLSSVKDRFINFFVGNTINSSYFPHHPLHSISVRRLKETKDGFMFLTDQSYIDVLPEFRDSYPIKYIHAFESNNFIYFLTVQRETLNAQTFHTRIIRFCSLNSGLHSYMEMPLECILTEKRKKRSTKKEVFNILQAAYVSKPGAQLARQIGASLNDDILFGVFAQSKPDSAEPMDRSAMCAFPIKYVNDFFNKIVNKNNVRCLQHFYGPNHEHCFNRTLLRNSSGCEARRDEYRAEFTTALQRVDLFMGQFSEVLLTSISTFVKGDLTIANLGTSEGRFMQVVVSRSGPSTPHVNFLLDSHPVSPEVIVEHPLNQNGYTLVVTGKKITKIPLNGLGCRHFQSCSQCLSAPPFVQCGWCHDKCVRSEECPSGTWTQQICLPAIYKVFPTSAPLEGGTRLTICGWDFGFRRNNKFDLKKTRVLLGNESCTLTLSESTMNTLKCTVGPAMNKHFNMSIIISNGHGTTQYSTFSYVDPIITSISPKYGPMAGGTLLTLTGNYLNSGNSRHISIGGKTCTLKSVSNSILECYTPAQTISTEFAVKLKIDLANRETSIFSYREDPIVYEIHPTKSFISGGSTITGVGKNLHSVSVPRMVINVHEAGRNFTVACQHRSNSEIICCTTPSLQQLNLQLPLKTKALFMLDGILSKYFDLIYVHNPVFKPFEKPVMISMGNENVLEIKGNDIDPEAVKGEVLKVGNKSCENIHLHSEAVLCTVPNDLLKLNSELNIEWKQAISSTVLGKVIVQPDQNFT

VEGF = VEGF (UniProt P15692-4 27-191, limits assumed); experiment: method not stated
Chain of VEGF (P15692 other isoform, or with tags, fused parts or gaps limits assumed): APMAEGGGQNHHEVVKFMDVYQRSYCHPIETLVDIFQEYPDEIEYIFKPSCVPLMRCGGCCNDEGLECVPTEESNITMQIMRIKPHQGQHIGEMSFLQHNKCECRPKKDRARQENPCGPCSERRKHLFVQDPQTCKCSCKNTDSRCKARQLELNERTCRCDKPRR

IGF1R = IGF1R (UniProt P08069 31-932, limits assumed); experiment: method not stated
hPD1-Fc = target: T5, hPD1-Fc (human, UniProt Q15116 25-167); experiment: SPR
T5 construct: not shown: Fc part not described
T5 sequence (Q15116 25-167): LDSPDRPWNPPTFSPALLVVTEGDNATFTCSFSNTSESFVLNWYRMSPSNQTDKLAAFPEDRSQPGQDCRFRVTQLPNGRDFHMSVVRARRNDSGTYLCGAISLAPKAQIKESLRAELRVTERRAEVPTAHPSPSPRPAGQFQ

[11] = target: T6, CD22 on Raji and Daudi cells (human, UniProt P20273); experiment: FACS on Raji cells, Alexa Fluor 488 anti-human IgG1, MFI; the curve reaches only about 130 MFI
T6 construct: on the cell surface of the human B cell lines Raji and Daudi; the sheet names only the cell lines (Raji, Daudi); CD22 is the target that the text gives for Epratuzumab

[12] = target: T1, CD3 on the cell surface of Jurkat cells; experiment: FACS on Jurkat cells, Alexa Fluor 488 anti-human IgG1, MFI

Binding Intensity by FACS (MFI) [1]: 211 MFI
B1: OKT3/Ofatumumab FIT8-Ig (bispecific antibody, human IgG1, kappa)
chain 1: not shown
chain 2: not shown
chain 3: not shown
notes: GGGGSGS linker

Kd [5]: 1.49 nM
Kd [6]: 0.731 nM
B5: FIT023a cMet (h1332)/PD-L1 (1B12) (bispecific antibody, human IgG1, kappa)
chain 1: not shown
chain 2: QVQLVQSGAEVKKPGASVKVSCKASGYTFTSYGFSWVRQAPGQGLEWMGWISASNGNTYYAQKLQGRVTMTTDTSTSTAYMELRSLRSDDTAVYYCARVYADYADYWGQGTLVTVSSASTKGPSVFPLAPSSKSTSGGTAALGCLVKDYFPEPVTVSWNSGALTSGVHTFPAVLQSSGLYSLSSVVTVPSSSLGTQTYICNVNHKPSNTKVDKKVEPKSC
chain 3: not shown
notes: leader left out; also called FIT023a-Ig

Binding Intensity by FACS (MFI) [1]: 159 MFI
B6: OKT3/Ofatumumab FIT7-Ig (bispecific antibody, human IgG1, kappa)
chain 1: not shown
chain 2: not shown
chain 3: not shown
notes: no linker; also called anti-CD3/CD20 FIT-Ig

Kd [7]: 9.08 nM
Kd [8]: 0.402 nM
Kd [6]: 0.708 nM
B8: PD-L1 antibody 1B12 (antibody, V domains shown)
VH: QVQLVQSGAEVKKPGSSVKVSCKTSGDTFSSYAISWVRQAPGQGLEWMGGIIPIFGRAHYAQKFQGRVTITADESTSTAYMELSSLRSEDTAVYFCARKFHFVSGSPFGMDVWGQGTTVTVSS
VL: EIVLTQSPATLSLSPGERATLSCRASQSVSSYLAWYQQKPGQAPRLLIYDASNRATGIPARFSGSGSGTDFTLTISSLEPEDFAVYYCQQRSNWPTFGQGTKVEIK
notes: parental mAb

EGFR Depletion (%) on H441 cell, FACS (membrane EGFR on cells): 0%
Kd [9]: 1.27 nM
Kd [10]: 2.63 nM
Kd (Cyno cMet): 4.53 nM
Kd [5]: 2.19 nM
B9: cMet antibody h1332 (13.3.2L-A91T,H-42K,S97T) (antibody, V domains shown)
VH: QVQLVQSGAEVKKPGASVKVSCKASGYTFTSYGFSWVRQAPGQGLEWMGWISASNGNTYYAQKLQGRVTMTTDTSTSTAYMELRSLRSDDTAVYYCARVYADYADYWGQGTLVTVSS
VL: DIQMTQSPSSVSASVGDRVTITCRASQGINTWLAWYQQKPGKAPKLLIYAASSLKSGVPSRFSGSGSGTDFTLTISSLQPEDFATYYCQQANSFPLTFGGGTKVEIK
notes: parental mAb; also called mAb-h1332

Kd (IGF1R): 0.729 nM
B14: IGF-1R antibody Figitumumab (antibody, V domains shown)
VH: EVQLLESGGGLVQPGGSLRLSCTASGFTFSSYAMNWVRQAPGKGLEWVSAISGSGGTTFYADSVKGRFTISRDNSRTTLYLQMNSLRAEDTAVYYCAKDLGWSDSYYYYYGMDVWGQGTTVTVSS
VL: DIQMTQFPSSLSASVGDRVTITCRASQGIRNDLGWYQQKPGKAPKRLIYAASRLHRGVPSRFSGSGSGTEFTLTISSLQPEDFATYYCLQHNSYPCSFGQGTKLEIK
notes: parental mAb

binding result [12]: no binding (tested: about 130 nM)
B15: anti-CD20 mAb Ofatumumab (antibody, V domains shown)
VH: EVQLVESGGGLVQPGRSLRLSCAASGFTFNDYAMHWVRQAPGKGLEWVSTISWNSGSIGYADSVKGRFTISRDNAKKSLYLQMNSLRAEDTALYYCAKDIQYGNYYYGMDVWGQGTTVTVSS
VL: EIVLTQSPATLSLSPGERATLSCRASQSVSSYLAWYQQKPGQAPRLLIYDASNRATGIPARFSGSGSGTDFTLTISSLEPEDFAVYYCQQRSNWPITFGQGTRLEIK
notes: parental mAb

Continued, binder first:

B2: FIT019b-Ig EGFR (Panitumumab)/HER3 (patritumab) (bispecific antibody, human IgG1, kappa)
chain 1: not shown
chain 2: QVQLQESGPGLVKPSETLSLTCTVSGGSVSSGDYYWTWIRQSPGKGLEWIGHIYYSGNTNYNPSLKSRLTISIDTSKTQFSLKLSSVTAADTAIYYCVRDRVTGAFDIWGQGTMVTVSSASTKGPSVFPLAPSSKSTSGGTAALGCLVKDYFPEPVTVSWNSGALTSGVHTFPAVLQSSGLYSLSSVVTVPSSSLGTQTYICNVNHKPSNTKVDKKVEPKSC
chain 3: not shown
notes: leader left out
Kd [2]: 0.338 nM

B3: FIT013a cMet (h1332 (13.3.2L-A91T,H-42K,S97T))/EGFR (panitumumab) (bispecific antibody, human IgG1, kappa)
chain 1: not shown
chain 2: B5 chain 2
chain 3: not shown
notes: leader left out; also called FIT013a (c-met/EGFR)
EGFR Depletion (%) on H441 cell, FACS (membrane EGFR on cells): 65.9%
Kd [3]: 0.534 nM
Kd (Cyno EGFR): 0.577 nM

B4: FIT13a-Ig cMet (h1332)/EGFR (panitumumab) (bispecific antibody, human IgG1, kappa)
chain 1: not shown
chain 2: B5 chain 2
chain 3: not shown
notes: also called FIT-Ig13a
Kd [4]: 1.52 nM

B7: EGFR antibody Panitumumab (antibody, V domains shown)
VH: QVQLQESGPGLVKPSETLSLTCTVSGGSVSSGDYYWTWIRQSPGKGLEWIGHIYYSGNTNYNPSLKSRLTISIDTSKTQFSLKLSSVTAADTAIYYCVRDRVTGAFDIWGQGTMVTVSS
VL: DIQMTQSPSSLSASVGDRVTITCQASQDISNYLNWYQQKPGKAPKLLIYDASNLETGVPSRFSGSGSGTDFTFTISSLQPEDIATYFCQHFDHLPLAFGGGTKVEIK
notes: parental mAb
Kd (Cyno EGFR): 0.362 nM

B10: FIT017a DLL4 (demcizumab)/VEGF (bevcizumab) (bispecific antibody, human IgG1, kappa)
chain 1: not shown
chain 2: QVQLVQSGAEVKKPGASVKISCKASGYSFTAYYIHWVKQAPGQGLEWIGYISSYNGATNYNQKFKGRVTFTTDTSTSTAYMELRSLRSDDTAVYYCARDYDYDVGMDYWGQGTLVTVSSASTKGPSVFPLAPSSKSTSGGTAALGCLVKDYFPEPVTVSWNSGALTSGVHTFPAVLQSSGLYSLSSVVTVPSSSLGTQTYICNVNHKPSNTKVDKKVEPKSC
chain 3: not shown
notes: leader left out
Kd (VEGF): 0.0365 nM

B11: FIT016a HER3 (Patritumab)/IGF1R (Figitumumab) (bispecific antibody, human IgG1, kappa)
chain 1: not shown
chain 2: QVQLQQWGAGLLKPSETLSLTCAVYGGSFSGYYWSWIRQPPGKGLEWIGEINHSGSTNYNPSLKSRVTISVETSKNQFSLKLSSVTAADTAVYYCARDKWTWYFDLWGRGTLVTVSSASTKGPSVFPLAPSSKSTSGGTAALGCLVKDYFPEPVTVSWNSGALTSGVHTFPAVLQSSGLYSLSSVVTVPSSSLGTQTYICNVNHKPSNTKVDKKVEPKSC
chain 3: DIQMTQFPSSLSASVGDRVTITCRASQGIRNDLGWYQQKPGKAPKRLIYAASRLHRGVPSRFSGSGSGTEFTLTISSLQPEDFATYYCLQHNSYPCSFGQGTKLEIKRTVAAPSVFIFPPSDEQLKSGTASVVCLLNNFYPREAKVQWKVDNALQSGNSQESVTEQDSKDSTYSLSSTLTLSKADYEKHKVYACEVTHQGLSSPVTKSFNRGEC
notes: leader left out
Kd (IGF1R): 2.72 nM

B12: FIT022a HER3 (patritumab)/PD-1 (nivolumab) (bispecific antibody, human IgG1, kappa)
chain 1: not shown
chain 2: B11 chain 2
chain 3: not shown
notes: leader left out; also called FIT022a-Ig
Kd (hPD1-Fc): 2.34 nM

B13: Epratuzumab (antibody, V domains shown)
VH: QVQLVQSGAEVKKPGSSVKVSCKASGYTFTSYWLHWVRQAPGQGLEWIGYINPRNDYTEYNQNFKDKATITADESTNTAYMELSSLRSEDTAFYFCARRDITTFYWGQGTTVTVSS
VL: DIQLTQSPSSLSASVGDRVTMSCKSSQSVLYSANHKNYLAWYQQKPGKAPKLLIYWASTRESGVPSRFSGSGSGTDFTFTISSLQPEDIATYYCHQYLSSWTFGGGTKLEIK
notes: also called CD22 antibody Epratuzumab
EC50 [11]: 13.2 nM
